Measurements as given in the RNAGym collection of RNA variant scans (doi:10.7554/elife.90254).

B1: LINE1-full (parent)
chain: UACGUAGGUGGUUUUCCCCUGAUAGUGCUAAGGGGGCCUGGAAGUUUGGACUGGGCAGAGCUCAACACAGCGUGGCAAAGUGGCUGUGGCUAGACUGCCUCUCUGGAUUCCUCGUCACUCAGCAGGGCAUCUCUGAGAGAAAUGCC

Variants of: B1
Test: self-cleavage, relative activity (ratio to wild type); higher = more cleavage; in vitro, sequencing; the parent is a self-cleaving ribozyme

Variant	self-cleavage
A31U G125U	1.37
U85A A141U	0.07
U15C G34A	0.78
U26A A65U	0.14
A140U C145U	1.63
U9C U52G	1.69
U87A A136G	0.08
A78G U134G	1.07
A67U G83A	0.03
U87G A94U	0.13
G25A A42G	1.38
A22G U45A	0.94
C84U U96C	0.04
A64U U130G	0.43
G36C U47A	0.89
G139A A141G	1.58
G32A A65G	0.11
U12G C103A	1.15
A117U C146G	0.92
G49U A78G	0.91
G74A U96A	0.07
A78G G135A	1.17
A31C A140G	1.18
A43G C63G	0.1

Variant	self-cleavage
U62C C113G	0.07
C84U U119C	0.12
U62A C99A	0.03
U15C A24G	1.13
C71U A140G	0.9
G21U C51A	1.48
G10A U15C	1.2
U9C G36C	2.16
A24G A43G	1.12
U73C U130A	1.2
A50G A77G	1.42
A107U	1.46
U100C A141G	1.9
U12A U62C	0.12
U12A U62G	0.06
A65G G75A	0.03
A124G A142G	0.72
U52C G125U	1.15
U13C G41U	1.14
U73C U134G	1.7
A43C U119C	1.62
G89U G93A	0.04
U14C A142C	1.87
C37G U102C	1.19

Variant	self-cleavage
A6G U23C	0.93
G135A A140G	1.18
U29C A79G	1.16
U119A A121G	1.27
U81C A138U	1.22
C37G A94G	0.32
U73A A142G	1.57
U20C A79U	1.7
A67U U81C	0.13
U13C A79G	1.25
U14A G34C	1.98
A22U U91C	0.2
A67C A124G	0.06
U109C A141G	1.46
U1A U134C	0.47
A22G A94U	0.37
A30G G53A	0.94
G55C	0.08
C76U A136G	1.75
A117G A138U	1.13
U45A U109A	0.94
A65G C123U	0.04
U85C A117C	0.25
A78G U100C	2.09

Variant	self-cleavage
U9C A140G	1.19
U9C A140U	1.35
A140C	0.65
A43G U62A	0.1
A42G U62C	0.08
A50C U87C	0.13
U112C C116G	2.13
U62C U143C	0.06
U73C U81G	2.04
U91C C99U	0.12
A30G C99U	1.03
A57U U96C	0.06
G36A U108C	1.37
U130C A140G	1.49
U52A A140G	1.08
U100A U134C	1.12
A50U U87A	0.1
U52A U104G	1.53
A43G A121G	1.12
G21A G82A	2
U12G A31G	0.87
U108G A140G	0.29
U100G U119C	2.45
U12G U134C	1.19

Variant	self-cleavage
C19U U45C	0.86
A43C	1.35
C110U U112C	2.13
G58U A117G	0.01
U12C U102G	0.88
U132A U134C	1.61
A94U C133U	0.29
A57U G114A	0.07
A92U C120U	0.78
U46C U47G	1.53
U15A C19A	0.79
U109C U112A	2.11
U12C U119A	1.78
A50U C111U	0.77
G4A G21A	0.76
A79G U119C	1.48
U23C A24C	1.09
U45C G55C	0.1
A140G A141G	0.53
C99G	0.76
G44A A141G	1.42
U46A U132A	1.09
U14A U26C	1.95
U87G A138G	0.14

Variant	self-cleavage
U81C U96A	0.1
A24U U29A	1.12
U9A A59G	0.18
A59U A140G	0.89
C128U A129G	1.65
A65C G74U	0.03
C120U A129C	0.82
A57G U104A	0.3
A50U U96G	0.3
G11C A138G	1.22
C18A	1.39
U5A U104C	1.1
U1A A129C	2.51
U112C G122C	1.18
U13C C61U	0
A77G G125U	2.41
A77G U130C	2.56
U20A U112C	0.79
G7U A79G	0.87
U96G C120U	0.04
A50C A94G	0
C37G U112C	0.28
U14C A43U	1.15
A64G C118U	0.29

Variant	self-cleavage
U23A A124G	0.94
G74A A124C	1.58
U26A U81A	1.29
G70A A94G	0.07
C3U U115A	0.72
U108C U112A	1.94
A65C	0.04
C3U U81C	0.79
U26G U73C	0.96
U52A U100A	1.29
A22U G75A	1
C76A G106U	1.2
U15A U132A	0.45
A64G C99U	0.18
G25A U108C	1.24
U91A G144A	0.88
U45G A50G	0.89
U45A U85A	0.06
U15G U119A	1.01
C113A A117U	1.03
U87C A94U	0.05
G7A U14C	0.88
A6G G126A	0.99
